In US20250314655A1 (AUTOLUS, published 2025) one finds TRBC1 binding and TRBC2 binding data, which are given here for eleven molecules.

No end group written: not given here.

B1: CP_01_D10 (scFv, not shown: small tags and cut ends)
scFv: QVQLVESGGGLVQPGRSLRLSCAASGFTFSSYAMHWVRQAPGKGLEWVAVISYDGSSKYYADSVKGRFTISRDNSKNTLYLQMNSLRAEDTAVYYCAKGGGSFGAFDIWGQGTLVTVSSGGGGSGGGGSGGGASDIQMTQSPSSLSASVGDRVTITCRASQSISRYLNWYQQKPGKAPNLLIYAASSLQSGVPSRFSGSGSGTDFTLTISSLQPEDFATYYCQQYNSYPLTFGGGTKLEIKRTAAA
notes: scFv from pSANG10-3F (His6, tri-FLAG), culture supernatant
B2: CP_01_F02 (scFv, not shown: small tags and cut ends)
scFv: QVQLVESGGGVVQPGRPLRLSCAASGFTFSSYAMHWVRQAPGKGLEWVAVISYDGSNKYYADSVKGRFTISRDNSKNTLYLQMNSLRAEDTAVYYCARAGYSYADYWGQGTMVTVSSGGGGSGGGGSGGGASDIQMTQSPSSLSASVGDRVTITCRASQGIRNDLGWYQQKPGKAPKRLIYAASSLQSGVPSRFSGSGSGTEFTLTISSLQPEDFATYYCLQHNSYPLTFGGGTKVDIKRTAAA
notes: as for B1
B3: CP_01_E09 (scFv, not shown: small tags and cut ends)
scFv: QVQLVESGGGVVQPGRSLRLSCAASGFTFSSYAMHWVRQAPGKGLEWVAVISYDGSNKYYADSVKGRFTISRDNSKNTLYLQMNSLRAEDTAVYYCARAHNSSSWSFDYWGQGTLVTVSSGGGGSGGGGSGGGASDIQMTQSPSSLSASVGDRVTITCRASQSISSYLNWYQQKPGKAPKLLIYDASNLETGVPSRFSGSGSGTDFTFTISSLQPEDIATYYCQQYDNLPLTFGGGTKVDIKRTAAA
notes: as for B1
B4: CP_01_F06 (scFv, not shown: small tags and cut ends)
scFv: EVQLLESGGGVVQPGRSLRLSCAASGFTFSSYGMHWVRQAPGKGLEWVAVISYDGSNKYYADSVKGRFTISRDNSKNTLYLQMNSLRAEDTAVYYCAKDDGAMRYWGQGTMVTVSSGGGGSGGGGSGGGASDIQMTQSPDSLAVSLGERATINCKSSQSVLYSSNNKNYLAWYQQKPGQPPKLLIYWASTRESGVPDRFSGSGSGTDFTLTISSLQAEDVAVYYCQQYYDSPYTFGQGTKVDIKRTAAA
notes: as for B1
B5: CP_01_D03 (scFv, not shown: small tags and cut ends)
scFv: QVQLVESGGGVVQPGRSLRLSCAAPGFTFSSYGMHWVRQAPGKGLEWVAVISYDGSNKYYADSVKGRFTISRDNSKNTLYLQMNSLRAEDTAVYYCARNKQYGMDVWGQGTLVTVSSGGGGSGGGGSGGGASDIVMTQSPATLSLAPGERATLSCRASQSVGSNLAWYQQKPGQAPSLLIYDASTRATGIPARFSGSGSGTDFTLTISSLQSEDIAVYYCQQYHRWPLTFGGGTKVEIKRTAAA
notes: as for B1
B6: CP_01_C08 (scFv, not shown: small tags and cut ends)
scFv: EVQLLESGGGAVQPGRSLRLSCAASGFTFSSYAMHWVRQAPGKGLEWVAVISYDGSNKYYADSVKGRFTISRDNSKNTLYLQMNSLRAEDTAVYYCASGYSSSWYLDYWGQGTLVTVSSGGGGSGGGGSGGGASDIQMTQSPSSVSASVGDRVTITCQASQDISNYLNWYQQKPGKAPKLLIYDASNLETGVPSRFSGSGSGTDFTFTISSLQPEDIATYYCQQYDNLPLTFGGGTKVEIKRTAAA
notes: as for B1
B7: CP_01_D12 (scFv, not shown: small tags and cut ends)
scFv: EVQLLESGGGVVQPGRSLRLSCAASGFTFSSYAMHWVRQAPGKGLEWVAVISYDGSNKYYADSVKGRFTISRDNSKNTLYLQMNSLRAEDTAVYYCAKGGDTYGFLDNWGQGTMVTVSSGGGGSGGGGSGGGASDIQMTQSPSTLSASVGDRVTITCRASQSISSWLAWYQQKPGKAPKLLIYKASSLESGVPSRFSGSGSGTDFTLTISSLQPEDFATYYCQQFNAYPLTFGGGTKVEIKRTAAA
notes: as for B1
B8: CP_01_C11 (scFv, not shown: small tags and cut ends)
scFv: QVQLVESGAEVKKPGASVKVSCKASGYTFTGYYMHWVRQAPGQGLEWMGRINPNSGGTNYAQKFQGRVTMTRDTSISTAYMELSRLRSDDTAVYYCASGGAGWNWGQGTMVTVSSGGGGSGGGGSGGGASNFMLTQPHSVSESPGKTATISCTRSSGSIASNYVQWYQQRPGSAPTTVIYEDNQRPFGVPDRFSGSIDSSSNSASLTISGLKTEDEADYYCQSHDSSNVVFGGGTQLTVLGQPAA
notes: as for B1
B9: CP_01_E07 (scFv, not shown: small tags and cut ends)
scFv: QVQLVESGGGVVQPGRSLRLSCAASGFTFSSYGMHWVRQAPGKGLEWVAVISYDGSNKYYADSVKGRFTISRDNSKNTLYLQMNSLRAEDTAVYYCAKDLGGSGGAFDIWGQGTLVTVSSGGGGSGGGGSGGGASDIVMTQTPHSLSVTPGQPASISCKSSQSLLYSDGKTYLYWYLQKPGQPPQLLIYEVSNRFSGVPDRFSGSGSGTDFTLKISRVEAEDVGVYYCMQSIQLYTFGQGTKVDIKRTAAA
notes: as for B1
B10: CP_03_D09 (scFv, not shown: small tags and cut ends)
scFv: EVQLVQSGAEVKKPGSSVKVSCEASGYTFTSYAISWVRQAPGQGLEWMGWMNPNSGNTGYAQKFQGRVTMTRNTSISTAYMELSSLRSEDTAVYYCARVSSYYGMDVWGQGTLVTVSSGGGGSGGGGSGGGASNFMLTQPLSVSESPGKTVTISCTRSSGSIASNYVQWYQQRPGSAPTTVIYEDNQRPSGVPDRFSGSIDSSSNSASLTISGLKTEDEADYYCQSYNSSNHWVFGGGTKVTVLGQPAA
notes: as for B1
B11: CP_03_F09 (scFv, not shown: small tags and cut ends)
scFv: QMQLVQSGAEVKKPGASVKVSCKASGYTFASYYMHWVRQAPGQGLEWMGIINPSGGSTSYAQKFQGRVTMTRDTSTSTVYMELSRLRSDDTAVYYCASNRGGSYKSVGMDVWGQGTTVTVSSGGGGSGGGGSGGGASNFMLTQPQSVSESPGKTVTISCTRSSGNFASKYVQWYQQRPGSSPTTVIYENYQRPSGVPDRFSGSIDSSSNSATLTISGLKTEDEADYYCQSYDEVSVVFGGGTQLTVLGQPAA
notes: as for B1

One experiment has as its target T1, TRBC1 peptide (biotinylated) (human, also: biotinylated (site not given here)).
T1 construct: In the monoclonal screen: biotinylated, 0.5 ug/ml on neutravidin-coated plates; In the polyclonal phage ELISA also presented as BSA or OA conjugate of the C-terminal-cysteine form; also called Bio-TRBC1; biotinylated TRBC1
T1 peptide: VLEDLNKVFPPEVAV
Put plainly: TRF assay, scFv on biotin-peptide/neutravidin plate. As for the experimental part: (§1) The scFv populations from round-2 and round-3 selection outputs were sub-cloned into the pSANG10-3F expression vector and transformed into E. coli BL21 (DE3) cells. 1128 individual transformants (564 clones/TRBC peptide) were picked into 12×96 well culture plates (94 clones/plate) and antibody expression was induced using autoinduction media. Recombinant monoclonal antibodies secreted into culture supernatant after overnight induction were tested for binding to biotinylated TRBC1 and TRBC2 immobilised on neutravidin coated Nunc Maxisorp™ 96 well plates.
The molecule B1 came in with a TRBC1 binding of 371000 TRF units.
Same read-out and setting: for B2 the value was 302000 TRF units.
On the same count and under the same terms, under B3 stands 403000 TRF units.
Still for that read-out and setting: under B4 stands 325000 TRF units; under B5, 328000 TRF units; under B6, 353000 TRF units.
In turn, B7 showed a TRBC1 binding of 393000 TRF units.
The same measure, in the same setting: for B8 the value was 349000 TRF units; for B9, 332000 TRF units.

For the next experiment, the target named is T2, TRBC2 peptide (biotinylated) (human, also: biotinylated (site not given here)).
T2 construct: In the monoclonal screen: biotinylated, 0.5 ug/ml on neutravidin-coated plates; In the polyclonal phage ELISA also presented as BSA or OA conjugate of the C-terminal-cysteine form; also called Bio-TRBC2; biotinylated TRBC2
T2 peptide: VLEDLKNVFPPEVAV
The description is as above. On the procedure:
as §1
Molecule B10 registered a TRBC2 binding of 129000 TRF units.
In turn, B11 gave a TRBC2 binding of 132000 TRF units.
